B1: Grafted FtsH-S6 ATPase, His6x-tagged (wild-type) (other)
chain: MLTEDQIKTTFADVAGCDEAKEEVAELVEYLREPSRFQKLGGKIPKGVLMVGPPGTGKTLLAKAIAGEAKVPFFTISGSDFVEMFVGVGASRVRDMFEQAKKAAPCIIFIDEIDAVGRQRGAGLGGGHDEREQTLNQMLVEMDGFEGNEGIIVIAATNRPDVLDPALLRPGRFDRQVVVGLPDRRQKRLIFSTITSKMNLSEEVDLEDYVARPDKISGADINSICQESGMLAVRENRYIVLAKDFEKAYKTVIKKDEQEHEFYK
B2: gankyrin-His6x (wild-type gankyrin) (natural protein)
chain: MEGCVSNLMVCNLAYSGKLEELKESILADKSLATRTDQDSRTALHWACSAGHTEIVEFLLQLGVPVNDKDDAGWSPLHIAASAGRDEIVKALLGKGAQVNAVNQNGCTPLHYAASKNRHEIAVMLLEGGANPDAKDHYEATAMHRAAAKGNLKMIHILLYYKASTNIQDTEGNTPLHLACDEERVEEAKLLVSQGASIYIENKEEKTPLQVAKGGLGLILKR
B3: gankyrin-His6x R41A (natural protein)
chain: MEGCVSNLMVCNLAYSGKLEELKESILADKSLATRTDQDSATALHWACSAGHTEIVEFLLQLGVPVNDKDDAGWSPLHIAASAGRDEIVKALLGKGAQVNAVNQNGCTPLHYAASKNRHEIAVMLLEGGANPDAKDHYEATAMHRAAAKGNLKMIHILLYYKASTNIQDTEGNTPLHLACDEERVEEAKLLVSQGASIYIENKEEKTPLQVAKGGLGLILKR
B4: gankyrin K116A (natural protein)
chain: MEGCVSNLMVCNLAYSGKLEELKESILADKSLATRTDQDSRTALHWACSAGHTEIVEFLLQLGVPVNDKDDAGWSPLHIAASAGRDEIVKALLGKGAQVNAVNQNGCTPLHYAASANRHEIAVMLLEGGANPDAKDHYEATAMHRAAAKGNLKMIHILLYYKASTNIQDTEGNTPLHLACDEERVEEAKLLVSQGASIYIENKEEKTPLQVAKGGLGLILKR
B5: gankyrin-His6x D39A/D71A (natural protein)
chain: MEGCVSNLMVCNLAYSGKLEELKESILADKSLATRTDQASRTALHWACSAGHTEIVEFLLQLGVPVNDKDAAGWSPLHIAASAGRDEIVKALLGKGAQVNAVNQNGCTPLHYAASKNRHEIAVMLLEGGANPDAKDHYEATAMHRAAAKGNLKMIHILLYYKASTNIQDTEGNTPLHLACDEERVEEAKLLVSQGASIYIENKEEKTPLQVAKGGLGLILKR
B6: gankyrin-His6x R41A/K116A (natural protein)
chain: MEGCVSNLMVCNLAYSGKLEELKESILADKSLATRTDQDSATALHWACSAGHTEIVEFLLQLGVPVNDKDDAGWSPLHIAASAGRDEIVKALLGKGAQVNAVNQNGCTPLHYAASANRHEIAVMLLEGGANPDAKDHYEATAMHRAAAKGNLKMIHILLYYKASTNIQDTEGNTPLHLACDEERVEEAKLLVSQGASIYIENKEEKTPLQVAKGGLGLILKR
B7: gankyrin E182A (natural protein)
chain: MEGCVSNLMVCNLAYSGKLEELKESILADKSLATRTDQDSRTALHWACSAGHTEIVEFLLQLGVPVNDKDDAGWSPLHIAASAGRDEIVKALLGKGAQVNAVNQNGCTPLHYAASKNRHEIAVMLLEGGANPDAKDHYEATAMHRAAAKGNLKMIHILLYYKASTNIQDTEGNTPLHLACDAERVEEAKLLVSQGASIYIENKEEKTPLQVAKGGLGLILKR

Key:
Experiment in all cases: ITC
[1] = biological target: B3
[2] = biological target: B7
[3] = biological target: B4
[4] = biological target: B6
[5] = biological target: B2
[6] = biological target: B5
[7] = biological target: FtsH-S6 ATPase R342A (ITC protein) (Escherichia coli | , UniProt P43686 337-418, R342A)
[8] = biological target: B1
[9] = biological target: FtsH-S6 ATPase K397E (ITC protein) (Escherichia coli | , UniProt P43686 337-418, K397E)
[10] = biological target: FtsH-S6 ATPase R338A/R339A/R342A (ITC protein) (Escherichia coli | , UniProt P43686 337-418, R338A | R339A | R342A)
[11] = biological target: FtsH-S6 ATPase E356A/E357A (ITC protein) (Escherichia coli | , E356A | E357A)
[12] = biological target: FtsH-S6 ATPase R338A/R342A (ITC protein) (Escherichia coli | , UniProt P43686 337-418, R338A | R342A)

B1
Kd [1]: 313 nM
Kd [2]: 141 nM
Kd [3]: 71.3 nM
Kd [4]: 3630 nM
Kd [5]: 67.3 nM
Kd [6]: 93 nM

B2
Kd [7]: 217 nM
dH [7]: -22 kcal/mol
dH [8]: -28.7 kcal/mol
Kd [9]: 95.2 nM
dH [9]: -25.6 kcal/mol
Kd [10]: 7470 nM
dH [10]: -2.2 kcal/mol
Kd [11]: 71.8 nM
dH [11]: -27.3 kcal/mol
Kd [12]: 2550 nM
dH [12]: -6.1 kcal/mol

B3
dH [8]: -17.1 kcal/mol

B4
dH [8]: -24 kcal/mol

B5
dH [8]: -25 kcal/mol

B6
dH [8]: -4.9 kcal/mol

B7
dH [8]: -28.2 kcal/mol
